In patent US20250283063, “NOVEL CRISPR-CAS12I SYSTEMS AND USES THEREOF” (HUIDAGENE THERAPEUTICS (SINGAPORE) PTE. LTD., published 2025):

Columns and labels:
xCas12i v5.3 = target: T1, xCas12i v5.3 (N243R,D892R); assay: cell_activity; PAM TTTG; OT-1; conditions: tags: NLS
T1 chain: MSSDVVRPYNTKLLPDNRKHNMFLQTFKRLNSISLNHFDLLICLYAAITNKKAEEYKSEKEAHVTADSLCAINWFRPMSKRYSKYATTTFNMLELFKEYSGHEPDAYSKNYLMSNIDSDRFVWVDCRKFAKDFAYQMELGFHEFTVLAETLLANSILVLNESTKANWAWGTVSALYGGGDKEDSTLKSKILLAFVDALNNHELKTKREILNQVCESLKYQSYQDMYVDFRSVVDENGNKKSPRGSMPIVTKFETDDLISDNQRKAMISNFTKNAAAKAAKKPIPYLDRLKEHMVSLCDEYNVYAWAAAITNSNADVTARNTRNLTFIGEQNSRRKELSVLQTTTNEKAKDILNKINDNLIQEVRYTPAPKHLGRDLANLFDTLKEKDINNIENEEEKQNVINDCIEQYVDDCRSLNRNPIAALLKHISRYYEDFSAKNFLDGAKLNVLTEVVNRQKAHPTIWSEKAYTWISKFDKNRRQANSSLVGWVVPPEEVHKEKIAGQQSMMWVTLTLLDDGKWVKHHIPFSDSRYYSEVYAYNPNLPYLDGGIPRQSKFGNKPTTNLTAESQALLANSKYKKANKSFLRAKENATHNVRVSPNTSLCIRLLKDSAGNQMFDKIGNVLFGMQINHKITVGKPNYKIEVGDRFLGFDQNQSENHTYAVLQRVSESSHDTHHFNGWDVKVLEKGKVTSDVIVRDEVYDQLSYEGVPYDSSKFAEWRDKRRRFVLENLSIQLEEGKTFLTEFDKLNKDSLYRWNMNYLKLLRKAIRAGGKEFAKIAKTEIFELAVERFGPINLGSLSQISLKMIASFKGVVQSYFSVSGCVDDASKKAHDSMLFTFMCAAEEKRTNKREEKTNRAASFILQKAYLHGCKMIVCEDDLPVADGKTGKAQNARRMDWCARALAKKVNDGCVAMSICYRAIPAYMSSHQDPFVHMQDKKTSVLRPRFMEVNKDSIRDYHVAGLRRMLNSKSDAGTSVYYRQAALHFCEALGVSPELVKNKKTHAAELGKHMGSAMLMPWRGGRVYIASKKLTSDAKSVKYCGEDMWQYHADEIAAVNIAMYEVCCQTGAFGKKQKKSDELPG
Experimental: (§1) HEK293T cells were cultured in 24-well tissue culture plates according to standard methods for 12 hours, before the reporter and expression plasmids were co-transfected into the cells using standard polyethyleneimine (PEI) transfection. The transfected cells were then cultured at 37° C. under 5% CO₂ for 48 hours. Then the cultured cells were analyzed by flow cytometry for BFP, EGFP, and mCherry fluorescent signals. A “blank” control group was also set up, where only the reporter plasmid was transfected, and no expression plasmid was introduced.
(§2) A dual plasmid fluorescent reporter system for evaluation of off-target dsDNA cleavage activity (off-target reporter system; referring to “Off-Target Reporter” in FIG. 1B) was established, which was similar to the dual plasmid fluorescent reporter system in Example 6 for evaluation of (on-target) dsDNA cleavage activity, except that the insertion sequence of the EGxxxxFP coding sequence contains an TTR off-target protospacer sequence (one of SEQ ID NOs: 127-129) containing one or more mismatches (bold, underlined) with a TTR-targeting spacer sequence (SEQ ID NO: 130) in the gRNA, rather than containing a TTR on-target protospacer sequence (SEQ ID NO: 130; which is the same as SEQ ID NO: 107 in Example 5); DR-T1 sequence (SEQ ID NO: 451) was used. To save drafting, the on-target protospacer sequence/spacer sequence in Table 7 refer to both the protospacer sequence (a DNA sequence) and the corresponding spacer sequence (an RNA sequence) with any “T” in the sequence when referring to a protospacer sequences standing for “T” and when referring to a such spacer sequence standing for “U”, although the assigned SEQ ID NO: 130 in the sequence listing is annotated as DNA.

xCas12i v6.1 = target: T2, xCas12i v6.1 (N243R,E336R,V880R); assay: cell_activity; PAM TTTG; OT-1; conditions: tags: NLS
T2 chain: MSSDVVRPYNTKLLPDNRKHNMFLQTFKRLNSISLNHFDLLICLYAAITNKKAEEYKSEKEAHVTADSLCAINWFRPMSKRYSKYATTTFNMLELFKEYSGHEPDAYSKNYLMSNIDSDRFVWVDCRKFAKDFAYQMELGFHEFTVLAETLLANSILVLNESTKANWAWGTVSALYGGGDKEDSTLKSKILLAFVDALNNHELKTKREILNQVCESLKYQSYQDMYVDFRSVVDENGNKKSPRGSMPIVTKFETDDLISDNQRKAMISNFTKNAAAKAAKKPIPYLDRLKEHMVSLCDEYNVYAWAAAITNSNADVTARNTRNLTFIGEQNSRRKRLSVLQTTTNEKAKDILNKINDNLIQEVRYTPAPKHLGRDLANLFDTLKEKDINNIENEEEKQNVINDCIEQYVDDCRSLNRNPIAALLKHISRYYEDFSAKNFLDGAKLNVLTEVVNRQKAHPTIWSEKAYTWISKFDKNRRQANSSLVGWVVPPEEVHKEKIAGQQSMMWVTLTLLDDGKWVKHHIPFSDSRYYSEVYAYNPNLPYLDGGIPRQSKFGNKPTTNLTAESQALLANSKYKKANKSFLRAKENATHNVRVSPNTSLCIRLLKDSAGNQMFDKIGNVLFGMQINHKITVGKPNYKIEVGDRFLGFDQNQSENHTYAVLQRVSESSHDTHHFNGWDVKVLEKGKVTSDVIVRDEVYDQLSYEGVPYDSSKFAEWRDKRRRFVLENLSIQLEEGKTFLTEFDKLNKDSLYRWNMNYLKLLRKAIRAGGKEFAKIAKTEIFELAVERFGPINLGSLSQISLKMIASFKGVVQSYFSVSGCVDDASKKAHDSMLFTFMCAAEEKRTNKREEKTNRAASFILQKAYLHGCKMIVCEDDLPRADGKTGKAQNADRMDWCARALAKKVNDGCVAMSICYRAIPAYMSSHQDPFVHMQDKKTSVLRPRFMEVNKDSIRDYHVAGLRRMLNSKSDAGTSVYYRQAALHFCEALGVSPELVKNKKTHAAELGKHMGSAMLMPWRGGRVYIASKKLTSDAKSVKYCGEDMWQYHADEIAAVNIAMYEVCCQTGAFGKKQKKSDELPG
Experimental: as §1, §2

B1: TTR.2 crRNA ; TTR OT.1 (ssRNA ; dsDNA)
RNA: AUGACUCAGAAAUGUGUCCCCAGUUGACACUAGAAGGGAUAUACAAAGUGGA
DNA 1: TTTGTAGAAGGGATATAGAAAGTATC
DNA 2: GATACTTTCTATATCCCTTCTACAAA
- activity (xCas12i v5.3): 6.66%
- activity (xCas12i v6.1): 2.04%
